Square brackets hold non-standard residues; d marks the D form. Ends that are not written are not given here. * marks the point of attachment. 1Nal = N[C@@H](Cc1cccc2ccccc12)C(=O)O; Stearoyl = CCCCCCCCCCCCCCCCCC(=O)*; Palmitoyl = CCCCCCCCCCCCCCCC(=O)*; Myristoyl = CCCCCCCCCCCCCC(=O)*; PheCl2 = dichlorophenylalanine; Lauroyl = CCCCCCCCCCCC(=O)*; PheNO2 = nitrophenylalanine; Decanoyl = CCCCCCCCCC(=O)*; Nle = CCCC[C@H](N)C(=O)O; Octanoyl = CCCCCCCC(=O)*
How the values were obtained:
[1] = target: T1, rat PrRP receptor in RC-4B/C cells (rat, UniProt Q64121 1-370); test: competition with 125I-rat PrRP31, RC-4B/C cells
T1 construct: whole, on cells; endogenous receptor of RC-4B/C cells (ATCC); also called rat receptor; GPR10 receptor expressed in rat hypophyseal cells
T1 sequence (looked up): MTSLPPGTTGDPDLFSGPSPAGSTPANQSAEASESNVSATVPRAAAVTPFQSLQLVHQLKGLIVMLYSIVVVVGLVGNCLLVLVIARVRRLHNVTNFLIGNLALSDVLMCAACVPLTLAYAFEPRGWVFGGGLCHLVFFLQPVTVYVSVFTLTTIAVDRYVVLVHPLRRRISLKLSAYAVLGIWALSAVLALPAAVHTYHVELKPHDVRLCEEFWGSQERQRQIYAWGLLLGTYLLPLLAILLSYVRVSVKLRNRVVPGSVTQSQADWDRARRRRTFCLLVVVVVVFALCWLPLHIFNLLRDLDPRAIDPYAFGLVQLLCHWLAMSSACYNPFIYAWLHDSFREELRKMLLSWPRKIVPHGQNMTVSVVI
Method in brief: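 Incubation 60 min at room temperature; cells solubilized in 0.1 mol/l NaOH and bound radioactivity γ-counted. Run in duplicate, repeated at least three times.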

[2] = target: T2, human PrRP receptor GPR10 (human, UniProt P49683 1-370); test: competition with 125I-human PrRP31, CHO cells with human GPR10
T2 construct: whole, on cells; also called GPR10 human receptor transfected in CHO cells; human GPR10 receptor
T2 sequence (looked up): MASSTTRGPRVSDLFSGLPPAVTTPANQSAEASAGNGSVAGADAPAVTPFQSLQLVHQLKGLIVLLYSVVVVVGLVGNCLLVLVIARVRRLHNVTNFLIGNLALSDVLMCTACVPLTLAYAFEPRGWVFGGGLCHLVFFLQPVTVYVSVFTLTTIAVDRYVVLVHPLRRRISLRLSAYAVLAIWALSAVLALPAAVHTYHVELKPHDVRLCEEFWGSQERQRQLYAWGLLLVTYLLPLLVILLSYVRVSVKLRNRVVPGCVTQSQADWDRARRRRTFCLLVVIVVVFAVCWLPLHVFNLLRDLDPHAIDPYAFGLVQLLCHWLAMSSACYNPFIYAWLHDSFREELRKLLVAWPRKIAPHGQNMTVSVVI

Binder	% of PrRP31 [1] [%]	Ki [1] [nM]	% of PrRP31 [2] [%]	Ki [2] [nM]
SRAHQHS[Nle]ETRTPDINPAWYTGRGIRPVGR[1Nal]-NH2 [analog no. 10]	4.8	102	11	34.5
Myristoyl-SRAHQHS[Nle]ETRTPDINPAWYTGRGIRPVGR[1Nal]-NH2 [analog no. 11]	124	3.96	292	1.33
Palmitoyl-SRAHQHS[Nle]ETRTPDINPAWYTGRGIRPVGR[1Nal]-NH2 [analog no. 12]	227	2.17	91	4.27
SRAHQHS[Nle]ETRTPDINPAWYTGRGIRPVGR[PheCl2]-NH2 [analog no. 13]	128	3.84	171	2.27
Myristoyl-SRAHQHS[Nle]ETRTPDINPAWYTGRGIRPVGR[PheCl2]-NH2 [analog no. 14]	275	1.79	409	0.95
Palmitoyl-SRAHQHS[Nle]ETRTPDINPAWYTGRGIRPVGR[PheCl2]-NH2 [analog no. 15]	379	1.3	370	1.05
SRAHQHS[Nle]ETRTPDINPAWYTGRGIRPVGR[PheNO2]-NH2 [analog no. 16]	2.5	19.9	81	4.8
Myristoyl-SRAHQHS[Nle]ETRTPDINPAWYTGRGIRPVGR[PheNO2]-NH2 [analog no. 17]	250	1.97	245	1.59
Myristoyl-SHQRPADTHWYPRG[Nle]FPTIGRITARNGEVSR (scrambled peptide; also called 20 scram) [analog no. 20]	4.6	123	1.5	262

The next binders have a lower Ki [1] than those just listed; values first:

% of PrRP31 [1] [%]	Ki [1] [nM]	% of PrRP31 [2] [%]	Ki [2] [nM]	Binder
1030	0.48	90	4.33	Myristoyl-TPDINPAWYASRGIRPVGRF-NH2 (SMILES CCCCCCCCCCCCCC(=O)N[C@H](C(=O)N1CCC[C@H]1C(=O)N[C@@H](CC(=O)O)C(=O)N[C@H](C(=O)N[C@@H](CC(N)=O)C(=O)N1CCC[C@H]1C(=O)N[C@@H](C)C(=O)N[C@@H](Cc1c[nH]c2ccccc12)C(=O)N[C@@H](Cc1ccc(O)cc1)C(=O)N[C@@H](C)C(=O)N[C@@H](CO)C(=O)N[C@@H](CCCNC(=N)N)C(=O)NCC(=O)N[C@H](C(=O)N[C@@H](CCCNC(=N)N)C(=O)N1CCC[C@H]1C(=O)N[C@H](C(=O)NCC(=O)N[C@@H](CCCNC(=N)N)C(=O)N[C@@H](Cc1ccccc1)C(N)=O)C(C)C)[C@@H](C)CC)[C@@H](C)CC)[C@@H](C)O) [analog no. 2]
503	0.98	254	1.53	Octanoyl-SRAHQHS[Nle]ETRTPDINPAWYTGRGIRPVGRF-NH2 [analog no. 4]
758	0.65	266	1.46	Decanoyl-SRAHQHS[Nle]ETRTPDINPAWYTGRGIRPVGRF-NH2 [analog no. 5]
1260	0.39	327	1.19	Lauroyl-SRAHQHS[Nle]ETRTPDINPAWYTGRGIRPVGRF-NH2 [analog no. 6]
714	0.69	548	0.71	Myristoyl-SRAHQHS[Nle]ETRTPDINPAWYTGRGIRPVGRF-NH2 [analog no. 7]
967	0.51	128	3.03	Palmitoyl-SRAHQHS[Nle]ETRTPDINPAWYTGRGIRPVGRF-NH2 [analog no. 8]
514	0.96	72	5.39	Stearoyl-SRAHQHS[Nle]ETRTPDINPAWYTGRGIRPVGRF-NH2 [analog no. 9]
850	0.58	505	0.77	Palmitoyl-SRAHQHS[Nle]ETRTPDINPAWYTGRGIRPVGR[PheNO2]-NH2 [analog no. 18]
